Laboratory results published in publication PMC10703879.

Experiments:
[1] = target: BCMAECD-His (monomeric, His-tagged human BCMA extracellular domain) (human) (UniProt Q02223); assay: SPR; heterogeneous ligand, first site (kd1); conditions: VHH
[2] = target: BCMAECD-Fc (dimerized, Fc-tagged human BCMA extracellular domain) (human) (UniProt Q02223); assay: SPR; heterogeneous ligand, first site (kd1); conditions: VHH
[3] = target: BCMAECD-Fc (dimerized, Fc-tagged human BCMA extracellular domain) (human) (UniProt Q02223); assay: SPR; heterogeneous ligand, first site (KD1); conditions: VHH
[4] = target: BCMAECD-His (monomeric, His-tagged human BCMA extracellular domain) (human) (UniProt Q02223); assay: SPR; heterogeneous ligand, second site (KD2); conditions: VHH
[5] = target: BCMAECD-Fc (dimerized, Fc-tagged human BCMA extracellular domain) (human) (UniProt Q02223); assay: SPR; heterogeneous ligand, second site (KD2); conditions: VHH
[6] = target: BCMAECD-His (monomeric, His-tagged human BCMA extracellular domain) (human) (UniProt Q02223); assay: SPR; heterogeneous ligand, second site (kd2); conditions: VHH
[7] = target: BCMAECD-Fc (dimerized, Fc-tagged human BCMA extracellular domain) (human) (UniProt Q02223); assay: SPR; heterogeneous ligand, second site (kd2); conditions: VHH
[8] = target: BCMAECD (synthesized extracellular domain of human B-cell maturation antigen, residues 1-54) (human) (UniProt Q02223); assay: AUC; sedimentation velocity; complexes formed by mixing nanobody with excess BCMAECD (molar ratio 1:4, overnight at 4 °C); 1 mg/ml, 45,000 rpm, 20 mM Tris pH 8.0, 100 mM NaCl, 4 °C
Sequence of BCMAECD (synthesized extracellular domain of human B-cell maturation antigen, residues 1-54) (human) (Q02223 1-54): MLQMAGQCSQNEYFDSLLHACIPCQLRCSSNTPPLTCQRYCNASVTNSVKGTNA

[9] = target: BCMAECD-His (monomeric, His-tagged human BCMA extracellular domain) (human) (UniProt Q02223); assay: SPR; Biacore 8K, 25 °C, 10 mM HEPES pH 7.4, 150 mM NaCl, 0.05% Tween 20; BCMAECD-His immobilised by amine coupling on CM5; nanobodies as analytes (five two-fold dilutions); Langmuir model for Nb1 and Nb2, heterogeneous ligand model for NbT
[10] = target: BCMAECD-Fc (dimerized, Fc-tagged human BCMA extracellular domain) (human) (UniProt Q02223); assay: SPR; Biacore 8K, 25 °C, 10 mM HEPES pH 7.4, 150 mM NaCl, 0.05% Tween 20; BCMAECD-Fc immobilised by amine coupling on CM5; nanobodies as analytes (five two-fold dilutions); Langmuir model for Nb1 and Nb2, heterogeneous ligand model for NbT

Sequence of BCMAECD-His (monomeric, His-tagged human BCMA extracellular domain) (human) (Q02223 1-54): as above
Sequence of BCMAECD-Fc (dimerized, Fc-tagged human BCMA extracellular domain) (human) (Q02223 1-54): as above

koff [1]	koff [2]	Kd [3]	Kd [4]	Kd [5]	koff [6]	koff [7]	stoichiometry N (NbT per BCMAECD (printed 2 to 4)) [8]	KD of the stronger site (heterogeneous ligand model) [9]	KD of the higher-affinity site (heterogeneous ligand model) [10]	Substance
0.000118 s⁻¹	3.28e-05 s⁻¹	0.00361 nM	4.27 nM	3.54 nM	0.0191 s⁻¹	0.0133 s⁻¹	–	–	–	NbT (cilta-cel nanobody tandem, Nb1 and Nb2 in tandem)
–	–	–	–	–	–	–	0.5	0.011 nM	0.0036 nM	NbT (cilta-cel nanobody tandem, Nb1 and Nb2 in tandem) (VHH)
